The subject of the test is viruses pseudotyped with the SARS-CoV-2 S protein. It counts as cell-based.

B1: 23-mer (A2N)-CHIPΔTPR fusion (protein)
chain: QNKTFLDKFNHEAEDLFYQSSLAMRLNFGDDIPSALRIAKKKRWNSIEERRIHQESELHSYLSRLIAAERERELEECQRNHEGDEDDSHVRAQQACIEAKHDKYMADMDELFSQVDEKRKKRDIPDYLCGKISFELMREPCITPSGITYDRKDIEEHLQRVGHFDPVTRSPLTQEQLIPNLAMKEVIDAFISENGWVEDY
As to B1, the “reduction of the infection rate of the pseudovirus” value was roughly 60%.
